Reference: paper PMC6650976, “Experimental Insight into the Structural and Functional Roles of the ‘Black’ and ‘Gray’ Clusters in Recoverin, a Calcium Binding Protein with Four EF-Hand Motifs” (Molecules, 2019)
Substitutions are numbered along the chain they refer to.

B1: recombinant wild type human recoverin (natural protein, UniProt P35243 1-200, looked up)
chain: MGNSKSGALSKEILEELQLNTKFSEEELCSWYQSFLKDCPTGRITQQQFQSIYAKFFPDTDPKAYAQHVFRSFDSNLDGTLDFKEYVIALHMTTAGKTNQKLEWAFSLYDVDGNGTISKNEVLEIVMAIFKMITPEDVKLLPDDENTPEKRAEKIWKYFGKNDDDKLTEKEFIEGTLANKEILRLIQFEPQKVKEKMKNA
modifications: myristoyl group at the N terminus (degree of myristoylation exceeded 89%)
notes: recoverin, human, UniProt P35243; cDNA from Y79 retinoblastoma cells, amplified with primers from the start codon to the stop codon, subcloned into pET-15b(+) by NcoI and XhoI; also called rWT; rWT recoverin; source: E. coli pET15b rec/pBB131/BL21(DE3)RILLC+, purified (phenyl-Sepharose, Toyopearl SuperQ-650M)
B2: human recoverin mutant W156A (natural protein, UniProt P35243 1-200, looked up)
chain: B1 chain with W156A
modifications: myristoylated (fraction of non-myristoylated forms did not exceed 16%)
notes: recoverin, human, UniProt P35243, C-terminal 'gray' cluster mutant; Parent construct as m1; source: E. coli, expressed and purified similarly to the rWT protein (phenyl-Sepharose, Toyopearl SuperQ-650M)
B3: human recoverin mutant V122A (natural protein, UniProt P35243 1-200, looked up)
chain: B1 chain with V122A
modifications: myristoylated (fraction of non-myristoylated forms did not exceed 16%)
notes: as for B2
B4: human recoverin mutant F172A (natural protein, UniProt P35243 1-200, looked up)
chain: B1 chain with F172A
modifications: myristoylated (fraction of non-myristoylated forms did not exceed 16%)
notes: recoverin, human, UniProt P35243, C-terminal 'black' cluster mutant; Parent construct as m1; source: E. coli, expressed and purified similarly to the rWT protein (phenyl-Sepharose, Toyopearl SuperQ-650M)
B5: human recoverin mutant Y86A (natural protein, UniProt P35243 1-200, looked up)
chain: B1 chain with Y86A
modifications: myristoylated (fraction of non-myristoylated forms did not exceed 16%)
notes: recoverin, human, UniProt P35243, N-terminal 'black' cluster mutant; Parent construct as m1; source: E. coli, expressed and purified similarly to the rWT protein (phenyl-Sepharose, Toyopearl SuperQ-650M)
B6: human recoverin mutant F70A (natural protein, UniProt P35243 1-200, looked up)
chain: B1 chain with F70A
modifications: myristoylated (fraction of non-myristoylated forms did not exceed 16%)
notes: recoverin, human, UniProt P35243, N-terminal 'gray' cluster mutant; Parent construct as m1; source: E. coli, expressed and purified similarly to the rWT protein (phenyl-Sepharose, Toyopearl SuperQ-650M)
B7: human recoverin mutant F35A (natural protein, UniProt P35243 1-200, looked up)
chain: B1 chain with F35A
modifications: myristoylated (fraction of non-myristoylated forms did not exceed 16%)
notes: as for B5
B8: human recoverin mutant F83A (natural protein, UniProt P35243 1-200, looked up)
chain: B1 chain with F83A
modifications: myristoylated (fraction of non-myristoylated forms did not exceed 16%)
notes: as for B5
B9: human recoverin mutant Q46A (natural protein, UniProt P35243 1-200, looked up)
chain: B1 chain with Q46A
modifications: myristoylated (fraction of non-myristoylated forms did not exceed 16%)
notes: as for B6
B10: human recoverin mutant F49A (natural protein, UniProt P35243 1-200, looked up)
chain: B1 chain with F49A
modifications: myristoylated (fraction of non-myristoylated forms did not exceed 16%)
notes: as for B6
B11: human recoverin mutant F106A (natural protein, UniProt P35243 1-200, looked up)
chain: B1 chain with F106A
modifications: myristoylated (fraction of non-myristoylated forms did not exceed 16%)
notes: as for B4
B12: human recoverin mutant K119A (natural protein, UniProt P35243 1-200, looked up)
chain: B1 chain with K119A
modifications: myristoylated (fraction of non-myristoylated forms did not exceed 16%)
notes: as for B2
B13: human recoverin mutant E169A (natural protein, UniProt P35243 1-200, looked up)
chain: B1 chain with E169A
modifications: myristoylated (fraction of non-myristoylated forms did not exceed 16%)
notes: as for B4

How the values were obtained:
[1] = target: the molecule itself; test: cross-linking; apo-proteins: 0.02% glutaric aldehyde, 16 h, 20 °C, protein 1 mg/mL, 20 mM Tricine-KOH pH 7.4, 50 mM KCl, 1 mM DTT, 1 mM EDTA; SDS-PAGE, Coomassie, densitometry; self-association
In short: (§1)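 Metal-free recoverin (human, recombinant, E. coli-expressed, purified, treated by gel filtration), along with its modified forms, was crosslinked with 0.02% glutaric aldehyde at 1.0 mg/mL for 16 h at 20 °C. The buffer was 20 mM Tricine-KOH pH 7.4, 50 mM KCl and 1 mM DTT, plus EDTA, MgCl2/EGTA or CaCl2. The share of each oligomer band was quantified in Quantity One as a percentage from scanned, Coomassie-stained gels, which were 15% resolving SDS-PAGE run at 5 µg/lane.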

[2] = target: the molecule itself; test: cross-linking; Ca2+-loaded proteins: 0.02% glutaric aldehyde, 16 h, 20 °C, protein 1 mg/mL, 20 mM Tricine-KOH pH 7.4, 50 mM KCl, 1 mM DTT, 1 mM CaCl2; SDS-PAGE, Coomassie, densitometry; self-association
In short: as §1

[3] = target: the molecule itself; test: cross-linking; Mg2+-loaded proteins: 0.02% glutaric aldehyde, 16 h, 20 °C, protein 1 mg/mL, 20 mM Tricine-KOH pH 7.4, 50 mM KCl, 1 mM DTT, 1 mM MgCl2, 1 mM EGTA; SDS-PAGE, Coomassie, densitometry; self-association
In short: as §1

Protein	Dimer 50 kDa, % [1]	Monomer 20 kDa, % [1]	Dimer 50 kDa, % [2]	Monomer 20 kDa, % [2]	Multimer 100–250 kDa, % [2]	Trimer 70–100 kDa, % [2]	Dimer 50 kDa, % [3]	Monomer 20 kDa, % [3]
B1	33.1 ± 1.1%	66.9 ± 1.1%	30.9 ± 0.4%	15.5 ± 0.6%	21.55 ± 0.09%	32 ± 1.1%	31.55 ± 0.09%	68.45 ± 0.09%
B2	35.4 ± 0.8%	64.6 ± 0.8%	25 ± 1.1%	20.4 ± 0.7%	29.8 ± 0.9%	24.8 ± 1%	36.8 ± 0.2%	63.2 ± 0.2%
B3	27 ± 1.2%	73 ± 1.2%	27.1 ± 1.3%	15.8 ± 0.2%	26.7 ± 2.1%	30.3 ± 0.6%	35.3 ± 0.9%	64.7 ± 0.9%
B4	33.6 ± 2%	66.4 ± 2%	29.3 ± 0.2%	22 ± 0.9%	20 ± 0.3%	28.8 ± 0.8%	36.6 ± 0.7%	63.4 ± 0.7%
B5	30.7 ± 3%	69.3 ± 3%	28.5 ± 1.4%	35.8 ± 2.7%	14.2 ± 0.6%	21.5 ± 0.7%	33.9 ± 0.2%	66.1 ± 0.2%
B6	29.3 ± 1.7%	70.7 ± 1.7%	29.3 ± 1.1%	40.1 ± 1.8%	11.4 ± 0.2%	19.1 ± 0.5%	26.9 ± 0.9%	73.1 ± 0.9%
B7	37.2 ± 0.5%	62.8 ± 0.5%	31.7 ± 0.3%	37.4 ± 3.6%	13.2 ± 3.3%	17.78 ± 0.07%	30.9 ± 1.9%	69.1 ± 1.9%
B8	35.6 ± 0.8%	64.4 ± 0.8%	28.7 ± 0.8%	38.4 ± 1.4%	13.2 ± 0.3%	19.7 ± 0.4%	33.8 ± 1%	66.2 ± 1%
B9	35.1 ± 1.8%	64.9 ± 1.8%	27.3 ± 1.5%	31.9 ± 1.9%	18.4 ± 0.6%	22.3 ± 1%	30.2 ± 0.5%	69.8 ± 0.5%
B10	36.7 ± 1%	63.3 ± 1%	25.5 ± 0.5%	30.6 ± 1.6%	21.08 ± 0.09%	22.8 ± 1.3%	32.1 ± 0.5%	67.9 ± 0.5%
B11	38 ± 0.3%	62 ± 0.3%	27.11 ± 0.08%	17.9 ± 2.1%	25 ± 0.8%	30 ± 1.4%	35.4 ± 1%	64.6 ± 1%
B12	36.7 ± 0.8%	63.3 ± 0.8%	24.4 ± 0.6%	19.5 ± 0.4%	31.38 ± 0.05%	24.7 ± 0.2%	46.4 ± 5%	53.6 ± 5%
B13	38.9 ± 1.2%	61.1 ± 1.2%	27 ± 0.3%	16.1 ± 1.5%	27.2 ± 0.9%	29.6 ± 0.3%	33.7 ± 0.5%	66.3 ± 0.5%
